We go through three molecules from US6969703B2, “Inhibitors of the ICE/ced-3 family of cysteine proteases” (Idun Pharmaceuticals, Inc., priority 2000, dated 2005).

Primed or numbered codes have the meaning given here. The star is where a group is joined. aldehyde′ = C-terminal aldehyde (aspartyl aldehyde); Cbz = O=C(OCc1ccccc1)*; CH2F = FC*

What is called IC50 is the point on the concentration scale where inhibition reaches its midpoint.

For assay [1], the target named is T1, Csp-6 (UniProt P55212 24-179; P55212 194-293, limits assumed).
T1 sequence (looked up) 1: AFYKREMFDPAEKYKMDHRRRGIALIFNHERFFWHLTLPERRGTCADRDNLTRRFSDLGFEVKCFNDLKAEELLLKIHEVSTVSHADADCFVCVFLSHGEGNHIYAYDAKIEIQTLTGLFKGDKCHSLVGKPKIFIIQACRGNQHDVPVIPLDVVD
T1 sequence (looked up) 2: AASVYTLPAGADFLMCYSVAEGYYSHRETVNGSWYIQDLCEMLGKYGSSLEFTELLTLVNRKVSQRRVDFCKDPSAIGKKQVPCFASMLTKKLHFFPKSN
The assay can be described thus: continuous fluorogenic enzyme assay, 60 min, fit of AMC product formation to irreversible competitive inhibition model.

Assay [2] concerns the target T2, Csp-3 (UniProt P42574 29-277, limits assumed).
T2 sequence (looked up): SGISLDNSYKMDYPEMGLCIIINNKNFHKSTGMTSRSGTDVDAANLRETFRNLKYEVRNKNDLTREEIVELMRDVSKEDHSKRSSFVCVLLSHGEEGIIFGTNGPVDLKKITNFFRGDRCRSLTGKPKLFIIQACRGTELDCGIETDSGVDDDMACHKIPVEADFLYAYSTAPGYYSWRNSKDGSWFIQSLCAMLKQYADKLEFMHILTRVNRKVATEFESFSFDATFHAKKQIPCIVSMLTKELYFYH
Described as above.

In assay [3] the target is T3, Csp-1 (UniProt P29466 120-297; P29466 317-404, limits assumed).
T3 sequence (looked up) 1: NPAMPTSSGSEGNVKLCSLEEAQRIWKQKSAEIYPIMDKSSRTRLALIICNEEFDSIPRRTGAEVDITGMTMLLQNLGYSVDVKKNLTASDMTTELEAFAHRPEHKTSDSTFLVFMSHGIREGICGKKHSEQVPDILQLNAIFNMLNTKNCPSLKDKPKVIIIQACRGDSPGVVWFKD
T3 sequence (looked up) 2: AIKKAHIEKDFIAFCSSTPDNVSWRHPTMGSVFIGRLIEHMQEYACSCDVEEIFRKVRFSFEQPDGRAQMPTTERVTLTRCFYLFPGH
The description is as above.

The target in assay [4] is T4, Csp-8 (UniProt Q14790 217-374; Q14790 385-479, limits assumed). Described as above.
T4 sequence (Q14790 217-374 limits assumed, form in doubt, chain 1 of 2): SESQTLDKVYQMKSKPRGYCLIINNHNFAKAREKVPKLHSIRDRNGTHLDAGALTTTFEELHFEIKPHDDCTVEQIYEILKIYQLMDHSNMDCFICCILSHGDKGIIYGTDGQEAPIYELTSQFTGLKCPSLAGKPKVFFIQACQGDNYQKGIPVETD
T4 sequence (Q14790 385-479 limits assumed, form in doubt, chain 2 of 2): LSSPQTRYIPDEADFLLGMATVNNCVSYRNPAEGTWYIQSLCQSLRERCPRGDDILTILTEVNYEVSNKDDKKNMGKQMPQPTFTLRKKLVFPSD
In assay [5] the target is T5, Csp-9 (Homo sapiens, UniProt P55211).
T5 sequence (P55211 1-315 limits assumed): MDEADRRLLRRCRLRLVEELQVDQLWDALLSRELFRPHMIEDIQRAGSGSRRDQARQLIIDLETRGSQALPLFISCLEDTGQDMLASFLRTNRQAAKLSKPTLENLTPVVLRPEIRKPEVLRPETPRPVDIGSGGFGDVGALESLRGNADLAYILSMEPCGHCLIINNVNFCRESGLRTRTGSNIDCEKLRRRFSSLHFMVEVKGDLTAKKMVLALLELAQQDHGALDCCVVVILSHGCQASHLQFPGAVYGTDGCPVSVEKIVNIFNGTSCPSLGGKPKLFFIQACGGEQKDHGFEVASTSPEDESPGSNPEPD
The assay can be described thus: Fluorescence enzyme assay, IC50 determination. As to conditions: 30 minutes preincubation at room temperature, AMC substrate. The class given is biochemical.

For assay [6], the target named is T6, Csp-3 (Homo sapiens, UniProt P42574).
T6 sequence (P42574 29-175 limits assumed): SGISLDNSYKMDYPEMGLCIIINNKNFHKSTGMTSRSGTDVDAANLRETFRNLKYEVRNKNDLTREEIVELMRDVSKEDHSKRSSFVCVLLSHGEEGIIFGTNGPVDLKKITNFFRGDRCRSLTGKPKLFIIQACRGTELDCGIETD
The assay can be described thus: Fluorescence enzyme assay, IC50 determination. In kind it is biochemical. As to conditions: recombinant enzyme, 30 minutes preincubation at room temperature, AMC substrate. The method, then: (§1) Fluorescence enzyme assays detecting the activity of the compounds of Formula I utilizing the recombinant ICE and CPP32 enzymes are performed essentially according to Thornberry et al. (Nature 356:768:774 (1992)) and Nicholson et al. (Nature 376:37-43 (1995)) respectively, (herein incorporated by reference) in 96 well microtiter plates. The substrate is Acetyl-Tyr-Val-Ala-Asp-amino-4-methylcoumarin (AMC) (SEQ ID NO: 1) for the ICE assay and Acetyl-Asp-Glu-Val-Asp-amino-4-methylcoumarin (SEQ ID NO: 2) for the CPP32, Mch2, Mch3 and Mch5 assays. Enzyme reactions are run in ICE buffer (25 mM HEPES, 1 mM EDTA, 0.1% CHAPS, 10% sucrose, pH 7.5) containing 2 mM DTT at room temperature in duplicate. The assays are performed by mixing the following components: • 50 μL ICE, Mch2, Mch5, CPP32 (18.8, 38, 8.1 and 0.153 nM concentrations, respectively) or Mch3 (1 unit) enzyme in ICE buffer containing either 8.0 (ICE, Mch2, Mch3, CPP32) or 20 (Mch5) mM DTT; • 50 μL compound of Formula I or ICE buffer (control); and • 100 μL of 20 μM substrate.
(§2) The enzyme and the compound of Formula I to be assayed are allowed to preincubate in the microtitre plate wells for 30 minutes at room temperature prior to the addition of substrate to initiate the reaction. Fluorescent AMC product formation is monitored for one hour at room temperature by measuring the fluorescence emission at 460 nm using an excitation wavelength of 360 nm. The fluorescence change in duplicate (control) wells are averaged and the mean values are plotted as a function of inhibitor concentration to determine the inhibitor concentration producing 50% inhibition (IC50).
(§3) The activity of a representative compound of this invention (i.e., Compound No. 1) was evaluated according to the procedures disclosed in Example 1. More specifically, the IC50 and Ki for Compound No. 1 were determined as set forth above. The IC50 results are provided in Table 2, as run against Cbz-ValAlaAsp-H as a reference control.

In assay [7] the target is T7, Csp-8 (Homo sapiens, UniProt Q14790). The assay can be described thus: Fluorescence enzyme assay, IC50 determination. The class given is biochemical. The conditions noted are these: 30 minutes preincubation at room temperature, AMC substrate. On the procedure: as §1, §2, §3
T7 sequence (Q14790 217-374 limits assumed): as the sequence (Q14790 217-374 limits assumed, form in doubt, chain 1 of 2) above
Assay [8] deals with T8, Csp-6 (Homo sapiens, UniProt P55212).
T8 sequence (P55212 24-179 limits assumed): T1 sequence (looked up) 1
The assay can be described thus: Fluorescence enzyme assay, IC50 determination. The class given is biochemical. The conditions noted are these: 30 minutes preincubation at room temperature, AMC substrate. On the procedure: as §1, §2, §3

In assay [9] the target is T9, Csp-7 (Homo sapiens, UniProt P55210).
T9 sequence (P55210 24-198 limits assumed): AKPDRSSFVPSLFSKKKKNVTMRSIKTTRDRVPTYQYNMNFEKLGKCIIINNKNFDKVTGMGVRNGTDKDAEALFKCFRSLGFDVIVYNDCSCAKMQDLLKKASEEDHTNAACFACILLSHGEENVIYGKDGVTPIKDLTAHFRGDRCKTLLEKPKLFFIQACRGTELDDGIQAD
As to the kind of experiment: Fluorescence enzyme assay, IC50 determination. As to conditions: 30 minutes preincubation at room temperature, AMC substrate. In kind it is biochemical. On the procedure: as §1, §2, §3

Assay [10] has as its target T10, Csp-1 (Homo sapiens, UniProt P29466).
T10 sequence (P29466 120-297 limits assumed): T3 sequence (looked up) 1
As to the kind of experiment: Fluorescence enzyme assay, IC50 determination. In kind it is biochemical. The conditions noted are these: recombinant enzyme, 30 minutes preincubation at room temperature, AMC substrate. On the procedure:
as §1, §2, §3

For assay [11], the target named is T6, Csp-3. The assay can be described thus: Continuous assay for dissociation constant Ki of irreversible inhibitors. In kind it is biochemical. As to conditions: continuous assay for sixty minutes, reaction initiated by adding enzyme to substrate-inhibitor mixture. The source says:
(§4) For the irreversible inhibition of a ICE/ced-3 Family Protease enzyme with a competitive irreversible inhibitor; using the model represented by the following formulas: [drawing 16] The product formation at time t may be expressed as: [formula] where E, I, EI and E-I denote the active enzyme, inhibitor, non-covalent enzyme-inhibitor complex and covalent enzyme-inhibitor adduct, respectively. The Ki value is the overall dissociation constant of the reversible binding steps, and k3 is the irreversible rate constant. The [S] and Ks values are the substrate concentration and dissociation constant of the substrate bound to the enzyme, respectively. [E]^T is the total enzyme concentration.
(§5) The equations set forth in Example I were also used determine the Ki values of inhibitor (i.e., Compound No. 1) bound to a ICE/ced-3 family protease. Thus, a continuous assay was run for sixty minutes at various concentrations of the inhibitor and the substrate. The assay was formulated essentially the same as described above for generating the data in Table 2, except that the reaction was initiated by adding the enzyme to the substrate-inhibitor mixture. The Ki values were obtained by simulating the product AMC formation as a function of time according to Equation I. The results of this second assay are set forth below in Table 3, wherein the reference compound was Cbz-ValAlaAsp-CH2F.

Assay [12] deals with T7, Csp-8. Described as above. In kind it is biochemical. As to conditions: continuous assay for sixty minutes, reaction initiated by adding enzyme to substrate-inhibitor mixture.
Description: as §4, §5

Assay [13] has as its target T8, Csp-6. The description is as above. The class given is biochemical. As to conditions: continuous assay for sixty minutes, reaction initiated by adding enzyme to substrate-inhibitor mixture.
Description: as §4, §5

Assay [14] has as its target T10, Csp-1. Described as above. In kind it is biochemical. The conditions noted are these: continuous assay for sixty minutes, reaction initiated by adding enzyme to substrate-inhibitor mixture.
Description: as §4, §5

For assay [15], the target named is T11, Csp-9 (UniProt P55211 1-416, limits assumed).
T11 sequence (looked up): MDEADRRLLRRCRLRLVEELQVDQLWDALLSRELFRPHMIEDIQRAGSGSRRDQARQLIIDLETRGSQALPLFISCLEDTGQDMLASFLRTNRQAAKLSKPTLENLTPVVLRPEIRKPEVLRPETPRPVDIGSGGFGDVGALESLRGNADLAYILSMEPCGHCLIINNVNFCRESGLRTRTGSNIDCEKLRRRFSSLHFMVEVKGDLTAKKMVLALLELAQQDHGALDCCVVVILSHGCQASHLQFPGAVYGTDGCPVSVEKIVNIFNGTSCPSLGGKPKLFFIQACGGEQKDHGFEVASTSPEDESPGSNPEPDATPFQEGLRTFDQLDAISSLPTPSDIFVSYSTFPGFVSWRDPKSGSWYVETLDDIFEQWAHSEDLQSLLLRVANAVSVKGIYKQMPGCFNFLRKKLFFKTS
As to the kind of experiment: cell-based or functional assay.

Assay [16] has as its target T1, Csp-6. The assay can be described thus: cell-based or functional assay.
Assay [17] has as its target T2, Csp-3. The assay can be described thus: cell-based or functional assay.
Assay [18] concerns the target T12, Csp-7 (UniProt P55210 24-303, limits assumed).
T12 sequence (looked up): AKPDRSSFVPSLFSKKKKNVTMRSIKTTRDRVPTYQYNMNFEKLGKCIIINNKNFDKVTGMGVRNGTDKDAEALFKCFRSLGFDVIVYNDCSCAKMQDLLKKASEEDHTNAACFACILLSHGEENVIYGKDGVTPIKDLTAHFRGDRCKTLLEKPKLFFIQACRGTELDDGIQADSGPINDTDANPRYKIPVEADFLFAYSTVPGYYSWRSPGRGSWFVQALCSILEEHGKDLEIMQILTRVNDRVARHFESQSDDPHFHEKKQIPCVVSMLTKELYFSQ
As to the kind of experiment: cell-based or functional assay.

Assay [19] concerns the target T3, Csp-1. As to the kind of experiment: cell-based or functional assay.
Assay [20] concerns the target T4, Csp-8. The assay can be described thus: cell-based or functional assay.

As for Cbz-Val-Ala-Asp-CH2F, the Ki in the assay with Csp-6 [1] came to 594 nM; in the assay with Csp-3 [2], 820 nM; in the assay with Csp-1 [3] it was 15 nM; with Csp-8 [4] it was 18 nM.

With `CC(C)C(NC(=O)COc1cccc2ccccc12)C(=O)NC(CC(=O)NS(C)(=O)=O)C(=O)COc1c(F)c(F)cc(F)c1F` (centres unmarked) [Compound 1], the IC50 against Csp-9 [5] amounted to 5 nM; on Csp-3 [6] it was 2 nM; against Csp-8 [7], 6 nM; against Csp-6 [8], 2 nM; against Csp-7 [9], 4 nM; at Csp-1 [10], 4 nM. The Ki at Csp-3 [11] is 80 nM; on Csp-8 [12], 600 nM; at Csp-6 [13] it was 400 nM; at Csp-1 [14] it was 200 nM.

B1: Cbz-ValAlaAsp-H (peptide)
peptide: Cbz-Val-Ala-Asp-{aldehyde′}
As to B1, the “IC50 (µM), inhibition of enzyme activity, fluorogenic substrate” value with Csp-9 [15] is 0.87 µM; with Csp-6 [16] it was more than 10 µM; in the assay with Csp-3 [17], 47 µM; with Csp-7 [18], more than 10 µM; in the assay with Csp-1 [19] it was 0.064 µM; with Csp-8 [20] it was 2.96 µM.
